± gives the uncertainty stated by the source.
B1: Homeobox protein cut-like 1, residues 941 to 1008; numbered along this chain, P39880 (parent)
chain: QEVDTIELTRQVKEKLAKNGICQRIFGEKVLGLSQGSVSDMLSRPKPWSKLTQKGREPFIRMQLWLNG

Variants of: B1
Test: abundance fitness (aPCA) (normalised: wild type 0, dead -1); higher = more abundant; growth selection in yeast, the domain comes from the species named
Conditions: Homo sapiens

Variant | abundance fitness
QEVDTIELTRQVKEKLAKNGICQRIFGEKVLGLSQGSVSDQLSRPKPWSKLTQKGREPFIRMQLWLNG [M41Q] | -0.171 ± 0.067
QEVDTIELTRQVKEKLAKNGICQRIFGEKVLGLSQGSVSDCLSRPKPWSKLTQKGREPFIRMQLWLNG [M41C] | 0.009 ± 0.12
QEVDTIELTRQVKEKLAKNGICQRIFGEKVLGLSQGSVSDFLSRPKPWSKLTQKGREPFIRMQLWLNG [M41F] | 0.003 ± 0.12
QEVDTIELTRQVKEKLAKNGICQRIFGEKVLGLSQGSVSDALSRPKPWSKLTQKGREPFIRMQLWLNG [M41A] | 0.023 ± 0.053
QEVDTIELTRCVKEKLAKNGICQRIFGEKVLGLSQGSVSDMLSRPKPWSKLTQKGREPFIRMQLWLNG [Q11C] | -0.323 ± 0.064
QEVDTIELTRQVKEKLAKNGICQRIFGEKVLGLSQGSVSDMLARPKPWSKLTQKGREPFIRMQLWLNG [S43A] | 0.007 ± 0.061
QEVDTIELTRQVKEKLAKNGICQRIFGEKVLGLSQGSVSDMLQRPKPWSKLTQKGREPFIRMQLWLNG [S43Q] | 0.029 ± 0.071
QEVDTIELTRQVKEKLAKNGICQRIFGEFVLGLSQGSVSDMLSRPKPWSKLTQKGREPFIRMQLWLNG [K29F] | -0.524 ± 0.11
QEVDTIELTRQVKEKLAKNGICQRIFGEAVLGLSQGSVSDMLSRPKPWSKLTQKGREPFIRMQLWLNG [K29A] | -0.258 ± 0.069
QEVDTIELTRQVKEKLAKNGICQRIFGENVLGLSQGSVSDMLSRPKPWSKLTQKGREPFIRMQLWLNG [K29N] | 0.365 ± 0.15
QEVDTIELTRQVKEKLAKNGICQRIFGESVLGLSQGSVSDMLSRPKPWSKLTQKGREPFIRMQLWLNG [K29S] | -0.12 ± 0.051
QEVDTIELTRQVKEKLAKNGICQRIFGEKVLGLSQGSVSDMLSRPKFWSKLTQKGREPFIRMQLWLNG [P47F] | -0.012 ± 0.12
QEVDTIELTRQVKEKLAKNGICQRIFGEKVLGLSQGSVSDMLSRPKPWSKLTQKGRDPFIRMQLWLNG [E57D] | -0.162 ± 0.14
QEVDTIELTRQVKEKLAKNGICQRIFGEKVLGLSQGTVSDMLSRPKPWSKLTQKGREPFIRMQLWLNG [S37T] | -0.104 ± 0.075
QEVDTIELTRQVKEKLAKNGICQRIFGEKVLGLSQGAVSDMLSRPKPWSKLTQKGREPFIRMQLWLNG [S37A] | 0.118 ± 0.061
QNVDTIELTRQVKEKLAKNGICQRIFGEKVLGLSQGSVSDMLSRPKPWSKLTQKGREPFIRMQLWLNG [E2N] | -0.227 ± 0.031
QEVDTIELTRQVKEKLAKNGICQRIFGEKVLGLSQGSVSDMLSRPKPWSKLTQKGWEPFIRMQLWLNG [R56W] | -0.456 ± 0.062
QEVDTIELTRQVKEKLAKNGICQRIFGEKVLGLSQGSVRDMLSRPKPWSKLTQKGREPFIRMQLWLNG [S39R] | 0.007 ± 0.048
QEVDTIELTRQVKEKLAKNGICQRIFGEKVLGLSQGSVNDMLSRPKPWSKLTQKGREPFIRMQLWLNG [S39N] | 0.029 ± 0.088
QEVDTNELTRQVKEKLAKNGICQRIFGEKVLGLSQGSVSDMLSRPKPWSKLTQKGREPFIRMQLWLNG [I6N] | -0.09 ± 0.1

Variant | abundance fitness
QEVDNIELTRQVKEKLAKNGICQRIFGEKVLGLSQGSVSDMLSRPKPWSKLTQKGREPFIRMQLWLNG [T5N] | -0.223 ± 0.13
QEVDTIELTRQVKEKLAKNGICQRIFGEKVEGLSQGSVSDMLSRPKPWSKLTQKGREPFIRMQLWLNG [L31E] | -0.486 ± 0.067
QEVDTIELTRQVKEKLAKNGICQRIFGEKVWGLSQGSVSDMLSRPKPWSKLTQKGREPFIRMQLWLNG [L31W] | -0.138 ± 0.063
QEVDTIELTRQVKEKLAKNGICQRIFGEKVLGLSQGSVSDMLSRPKPWSKLTQKGREPFVRMQLWLNG [I60V] | 0.025 ± 0.059
QEVDTIELTRQVKEKLAKNGICQRIFGEKVLGLSQGSVSDMLSRPKPWSKLTQKGREPFNRMQLWLNG [I60N] | -0.051 ± 0.094
QEVDTIELTRQVKEKLAKNGICQRIFGEKVLGLSQGSVSDMLSRPKPWSKLTQKQREPFIRMQLWLNG [G55Q] | 0.033 ± 0.067
QEVDTIELTRQVKEKLAKNGICQRKFGEKVLGLSQGSVSDMLSRPKPWSKLTQKGREPFIRMQLWLNG [I25K] | -0.022 ± 0.081
QEVDTIELTRQVKEKCAKNGICQRIFGEKVLGLSQGSVSDMLSRPKPWSKLTQKGREPFIRMQLWLNG [L16C] | -0.073 ± 0.087
QEVDTIELTRQVKEKLAKNGICQRIFGEKVLGLSQGSESDMLSRPKPWSKLTQKGREPFIRMQLWLNG [V38E] | -0.282 ± 0.063
QEVDTIELTRQVKEKLAKNGICQRIFGEKVLGLSQGSVSDMLSRPKPWSKLTPKGREPFIRMQLWLNG [Q53P] | 0.031 ± 0.073
QEVDTIELTRQVKEKLAKNGICQRIFGEKGLGLSQGSVSDMLSRPKPWSKLTQKGREPFIRMQLWLNG [V30G] | 0.111 ± 0.43
QEVDTIELTRQVKEKLAKNGICQRIFGEKVLGLSQGSVSEMLSRPKPWSKLTQKGREPFIRMQLWLNG [D40E] | 0.044 ± 0.065
QEVDTIELTRQVKEKLAKNGICQRIFGEKVLGLSQGSVSHMLSRPKPWSKLTQKGREPFIRMQLWLNG [D40H] | -0.118 ± 0.077
QEVDTIEDTRQVKEKLAKNGICQRIFGEKVLGLSQGSVSDMLSRPKPWSKLTQKGREPFIRMQLWLNG [L8D] | 0.076 ± 0.11
QEVDTIELTRQVKEKLAKNGICQRIFGEKVLGLCQGSVSDMLSRPKPWSKLTQKGREPFIRMQLWLNG [S34C] | -0.09 ± 0.084
QEVDTIELTRQVKEKLAKNGICQRIFGEKVLGLHQGSVSDMLSRPKPWSKLTQKGREPFIRMQLWLNG [S34H] | -0.139 ± 0.18
QEVDTIELTRQVKEKLAKNGICQRIFGEKVLGLSQGSVSDMLSRPKPWSKLTQKGREPFIRMQLALNG [W65A] | -0.666 ± 0.064
QEVDTIELTDQVKEKLAKNGICQRIFGEKVLGLSQGSVSDMLSRPKPWSKLTQKGREPFIRMQLWLNG [R10D] | -0.112 ± 0.11
AEVDTIELTRQVKEKLAKNGICQRIFGEKVLGLSQGSVSDMLSRPKPWSKLTQKGREPFIRMQLWLNG [Q1A] | 0.167 ± 0.1
KEVDTIELTRQVKEKLAKNGICQRIFGEKVLGLSQGSVSDMLSRPKPWSKLTQKGREPFIRMQLWLNG [Q1K] | 0.076 ± 0.065

From the Human Domainome abundance scans (Beltran et al. 2025)
